Data: the nanobody polyreactivity screen of Harvey et al. (2022)

Assay: yeast display, Sf9 membrane polyspecificity reagent, FACS + sequencing; frameworks hold sequencing errors
How it was run: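 Nanobodies from a synthetic yeast display library (Saccharomyces cerevisiae BJ5465), induced 36–48 hours with galactose, were stained 1 hour at 4 °C with 10% biotinylated, detergent-solubilized Sf9 membrane reagent, enriched on streptavidin microbeads, then FACS-sorted. Anti-HA (expression) and streptavidin (reagent binding) fluorescence set low and high (top ~1%) gates. Polyreactivity labels come from the gate of origin. Genes were colony-PCR amplified, MiSeq 2 × 250 sequenced and filtered by CDR length.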

Row | Sequence | polyreactivity (PSR sort gate)
1 | QVQLVESGGGLVQAGGSLRLSCAASGSTFPRNAMGWYRQAPGKERELVARITWSGGDTYYADSVKGRFTISRDNSKNTVYLQMISLKPEDTAVYYCAARWYRSVLAKVGYGYWGQGTQVTVSS | high polyreactivity
2 | QVHLVESGGGLVQAGGSLRLSCAASGSTFKRYAMGWYRPAPGKERELVAAIRRGGITNYADSVKGRFTISRDNAKNTVYLQMNSLKPEDTAVYYCAKDGVTYPYSYEYDYWGQGTQVTVSS | low polyreactivity
3 | QVQLVESGGGLVQAGGSLRLSCAASGRTFAYNTMGWYRQAPGKESELVAAITWSGGGTYYADSVKGRFTISRDNAKNTVYLQMNSLKPEDTAVYYCAVEYASPRARYRYYYWGQGTQVTVSS | high polyreactivity
4 | QVQLVESGGGLVQAGGSLRLSCAASGRIFDLYAMGWYRQAPGKEREFVAAISGRGGSTYYADSVKGRFTISRDNAKNTVYLQMNSLKPEDTAVYYCNAKRSLYGRYGYWGQGSQVTVSS | high polyreactivity
5 | QVQLVESGGGLVQAGGSLRLSCAASGSIFRVYAMGWYRQAPGKERELVAAITRGGSTYADSVKGRFTISRDNAKNTVYLQMNSLKPEDTAVYYCAAQRTLYRSGFDSWGQGTQVTVSS | high polyreactivity
6 | QVQLVESGGGLVQAGGSLRLSCAASGRIFKSNAMGWYRQAPGKERELVASISRSGSTNYADSVKGRFTLSRDNAKNTVYLQMNSLKPEDTAVYYCAKDPDAKGGGYDYWGQGTQVTVSS | low polyreactivity
7 | QVQLVESGGGLVQEGGSLRLSCAASGFTFVGYAMGWYRQAPGKERELLASIPWGGDRTYYADTVKGRFTISRDNAKNTDYLQMNSLKPEDTAVYYCNAQYEIWRVTFSPYDRWGYDYWGQGTQVTVSS | low polyreactivity
8 | QVQLVESGGGLVQAGGSLRLSCAASGIIILEYVMGSYRQAPGKERELVAAINSGGSTYYADSVKGRFTISRDNAKNTVYLQMNSLKPEDTAVYYCAADDYYKFDYWGQGTQVTVSS | low polyreactivity
9 | QVQLVESGGRLVQAGGSLRLSCAASGRIFNNYAMGWYRQAPGKERELVAAISGGGSTNYADSVKGRFTISRDNAKNTVYLQMNSLKPEDTAVYYCASGYLKASRDLYETVPYDYWGQGTQVTVSS | low polyreactivity
10 | QVQLVESGGGIVQAGGSLRLSCAASGITFGSYVMGWYRQAPGKERELVAAINIGGGTYYADSVKGRFTISRDNAKNTVYLQMISLKPEDTAVYYCARDFYWYYRAARLDYWGQGTQVTVSS | high polyreactivity
11 | QVQLVESGGGLVQAGGSLRLSCAASGSTFYHNVMGWYRQAPGKERELVASIDTGDSTNYADSVKGRFTISRDNAKKTVYLQMNSLKPEDTAVYYCNAVWNTFISGRSYDYWGQGTQVTVSS | low polyreactivity
12 | QVQLVESGGGLVQAGGSLRLSCAASGRIFGPYVMGWYRQAPGKERELVAAINRRGGSTYYADSVKGRFTISRDNAKNTVYLQMNSLKPEDTAVYYCAAKKATVVYRMEYWGQGTQVTVSS | high polyreactivity
13 | QVQLVESGGGLVQAGGSLRLSCAASGIIFDYYTMGWYRQAPGKARELVAGITRSGGRTYYADSVKGRFTISRDNAKNTVYLQMNSLKPEETAGYYCAAVQRRTYVKYESWGQGTQVTVSS | high polyreactivity
14 | QVQLVESGGGLVQAGGSLRLSCAASGRIFNYYAMGWYRQAPGKERELVARITVGGRTYYADSVKGRFTISRDNAKNTVYLQMNSLKPEDTAVYYCAAVFPYHFGNMDYWGQGTQVTVSS | high polyreactivity
15 | QVQLVESGGGLVQAGGSLRLSCAASGSTYGYAMGWYRQAPGKEMKLVARITWRGGSTSYADSVKGRFTITRDNAKNTVYLQMNSLKPEDTAVYYCADGFYFQVYTYVRKRYYYWGQGTQVTVSS | high polyreactivity
16 | QVQLVESGGGIVQAGGSLRLSCAASGFIFLPYAMGWYRQAPGKERELVARISRSGASTYYADSVKGRFTISRDNAKNTVYLQMNSLKPEDTAVYYCNAVTSWPRRDFDYWGQGTQVTVSS | high polyreactivity

Row | Sequence | polyreactivity (PSR sort gate)
17 | QVQLVESGGGLVQAGGSLRLSCAASGDITYIYAMGWYRQAPGKERELVADISSSVGNTYYADSVKGRFTISRDNAKNTVYLQMNSLKPEDTAVYYCNADYVQPTESGGTYDYWGQGTQVTVSS | low polyreactivity
18 | QVQLVESGGGLVQAGGSLRLSCAASGITFPANAMGWYRQSPGKERELVADISESDGSTYYADSVKGRFTISRDNAKHTVYLQMNRLKPEDTAVYYRAADGTYGTRSDYWGQGTQVTVSS | low polyreactivity
19 | QVQLVESGGGLVQAGGRLRLSCAASGNIFLDYTLGWYRQAPGKERELVAAISRGGSTYYADSVKGRFTISRDNAKNTVYLQMNSLKPEDTAVYYCNARCWEYFAHNYWGQGTQVTVSS | low polyreactivity
20 | QVQLVESGGGLVQAGGSLRLSCAASGFIFRYYAMGWYRQAPGKERELVAAISKRGGGTYYADSVKGRFTISRDYAKNTVFLQMNSLKPEDTAVYYCAAGPGRGRSTLGSYYWGQGTQVTVTS | high polyreactivity
21 | QVQLVESGGGLVQAGGSLRLSCAASGGIFGYYVMGWYRQAPGKERELVAAITSGGGTNYADSVKGRFTISRDNAKNTVYLQMNSLKPEDTAVYYCAAVYVRHRFGRFGYWGQGTQVTVSS | low polyreactivity
22 | QVQLVESGGGLVQAGGSLRLSCAASGRTFADHTMGWYRQAPGKERELVARINSGSSTYYADSVKGRFTISRDNAKNTVYLQMNSLKPEDTAVYYCAARGSDYIRWYVGGRYGYWGQGTQVTVSS | low polyreactivity
23 | QVQLQESGGGLVQAGGSLGCAASGNISTRSEMGWYRQAPGKDREFVATINSGGITNYADSVNGRFTISRDNAKKTVYLRMNSLKTEDTAVYYRAVFGYLSDPNDYCGQGTQVTVSS | low polyreactivity
24 | QVQLVESGGGLVQAGGSLRLSCAASGSTFDANAMGWSRQAPRKERELVATISDGGSTNYADSVKGRFTISSDNAKNTVYLQMISVKPEDTAVYYCAAVKLFLGLGFEYWGQGTQVTVSS | low polyreactivity
25 | QVQLVESGGGLVQAAGSLRLSCAASGSTFGYNTMGWYRQAPGKERELVAGITYSGGRTYYADSVKGRFTISRDNAKNTVYLQMNSLKPADTAVYYCAALYGRGGYRNQPKSTTGMDYWGQGTQVTVSS | high polyreactivity
26 | QVQLVESGGGLVQAGGSLRLSCAASGRIFGYYVMGWYRQAPGKERELVAAINYDGGSTYYADSVKGRFTISRDNAKNTVYLQMNSLKPEDTAVYYCAAAIGNSEYGWRYDYWGQGTQVTVSS | low polyreactivity
27 | QFQLVESVGGLVQAGGSLRISCAASGIIFYSYALGWYREAPGKERELVATISFSGDNTYYADSVKGRFTISRDNAKNTVYLQMNSLKPEDTAVYYCAKDLGYRGRYNYWGQGTQVTVSS | low polyreactivity
28 | QVQLVESGGGLVQAGGSLRLSCAASGFTFRSYDMGWYRQAPGKERELVAAISSTGRTYYADSVKGRFTISRDNAKNTVYLHMYSLNPEDTAVYYCARNIPVSYYRYGYWGQGSQVTVSS | high polyreactivity
29 | QVQLQESCGGLVQAGGSLRLSCAASGTIITARFMGWYRQAPGKERELVATITDGGNNNHAESVKGRFTISRDNAKNTVYLQMNSLKPEDAAVYYCAAGEVDNDTLLYWGQGSQVTVSS | low polyreactivity
30 | QVQLVESGRGLVQAGGSLRLSCAASGITFGDNVMGWYRQAPGKERELVAAISRIGDDTYYADSVKGRFTISRDNAKNTVYLQMNSLKPEDTAVYYCATDYTQRDYYNYGYWGQGTQVTVSS | low polyreactivity
31 | QVQLVESGGGLVQAGGSLRLSCAASGSTFTLNAMGWYRQAPGKERELVAAITSGGRTKYADSVKGRFTISRDNAKNTVYLQMNSLKPEDTAVYYCAATFAGGYGYWGQGTQVTVSS | high polyreactivity
32 | QVQLVESGGGLVQAGGSLRLSCAASGLIFRFNAMGWYRQAPGKERELVAAITRAGSTYYADSVKGRFTISRDNAKNTVYLQMNSLKPEDTAVYYCAAGQYRLPQRGYGYWGQGTQVTVSS | high polyreactivity
